From IntAct's records for PubMed 16956611

B1: Histone deacetylase 7 (Mus musculus), Q8C2B3 (parent)
chain: MHSPGAGCPALQPDTPGSQPQPMDLRVGQRPTVEPPPEPALLTLQHPQRLHRHLFLAGLHQQQRSAEPMRLSMDPPMPELQGGQQEQELRQLLNKDKSKRSAVASSVVKQKLAEVILKKQQAALERTVHPSSPSIPYRTLEPLDTEGAARSVLSSFLPPVPSLPTEPPEHFPLRKTVSEPNLKLRYKPKKSLERRKNPLLRKESAPPSLRRRPAETLGDSSPSSSSTPASGCSSPNDSEHGPNPALGSEADGDRRTHSTLGPRGPVLGNPHAPLFLHHGLEPEAGGTLPSRLQPILLLDPSVSHAPLWTVPGLGPLPFHFAQPLLTTERLSGSGLHRPLNRTRSEPLPPSATASPLLAPLQPRQDRLKPHVQLIKPAISPPQRPAKPSEKPRLRQIPSAEDLETDGGGVGPMANDGLEHRESGRGPPEGRGSISLQQHQQVPPWEQQHLAGRLSQGSPGDSVLIPLAQVGHRPLSRTQSSPAAPVSLLSPEPTCQTQVLNSSETPATGLVYDSVMLKHQCSCGDNSKHPEHAGRIQSIWSRLQERGLRSQCECLRGRKASLEELQSVHSERHVLLYGTNPLSRLKLDNGKLTGLLAQRTFVMLPCGGVGVDTDTIWNELHSSNAARWAAGSVTDLAFKVASRELKNGFAVVRPPGHHADHSTAMGFCFFNSVAIACRQLQQHGKASKILIVDWDVHHGNGTQQTFYQDPSVLYISLHRHDDGNFFPGSGAVDEVGTGSGEGFNVNVAWAGGLDPPMGDPEYLAAFRIVVMPIAREFAPDLVLVSAGFDAAEGHPAPLGGYHVSAKCFGYMTQQLMNLAGGAVVLALEGGHDLTAICDASEACVAALLGNKVDPLSEESWKQKPNLSAIRSLEAVVRVHRKYWGCMQRLASCPDSWLPRVPGADAEVEAVTALASLSVGILAEDRPSERLVEEEEPMNL

Variants of: B1
Conditions: with 1433e_mouse Ywhae

Variant	effect of a mutation on the interaction
S178E;S344E;S479E	disrupting interaction

Variants of: B1
Conditions: with 1433e_mouse Ywhae
Remark: another data set of the same source

Variant	effect of a mutation on the interaction
S178E;S344E;S479E	disrupting interaction

Variants of: B1
Conditions: with mef2a_mouse Mef2a

Variant	effect of a mutation on the interaction
S178A;S344A;S479A	disrupting interaction strength
